Assay results published in PMC4073494.

Legend:
[1] = target: purified full-length EED (AlphaScreen) (UniProt O75530); assay: AlphaScreen or HTRF
[2] = target: EED (Homo sapiens) (UniProt O75530); conditions: cited from earlier work
Sequence of EED (Homo sapiens) (O75530 2-441): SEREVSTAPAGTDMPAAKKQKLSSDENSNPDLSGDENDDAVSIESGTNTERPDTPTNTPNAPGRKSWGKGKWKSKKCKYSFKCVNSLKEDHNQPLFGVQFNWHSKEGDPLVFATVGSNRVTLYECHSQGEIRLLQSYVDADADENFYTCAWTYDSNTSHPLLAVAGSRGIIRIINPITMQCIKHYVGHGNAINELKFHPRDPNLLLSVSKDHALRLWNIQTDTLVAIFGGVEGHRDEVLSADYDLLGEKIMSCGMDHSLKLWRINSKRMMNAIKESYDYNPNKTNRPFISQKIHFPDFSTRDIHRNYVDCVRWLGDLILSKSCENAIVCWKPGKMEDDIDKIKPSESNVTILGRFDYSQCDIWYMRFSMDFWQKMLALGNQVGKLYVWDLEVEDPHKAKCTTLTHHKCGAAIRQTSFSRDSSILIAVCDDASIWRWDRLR

Sequence of EZH2 39-68 (Q15910 39-68): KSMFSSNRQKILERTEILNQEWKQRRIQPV
Sequence of purified full-length EED (AlphaScreen) (O75530 whole entry): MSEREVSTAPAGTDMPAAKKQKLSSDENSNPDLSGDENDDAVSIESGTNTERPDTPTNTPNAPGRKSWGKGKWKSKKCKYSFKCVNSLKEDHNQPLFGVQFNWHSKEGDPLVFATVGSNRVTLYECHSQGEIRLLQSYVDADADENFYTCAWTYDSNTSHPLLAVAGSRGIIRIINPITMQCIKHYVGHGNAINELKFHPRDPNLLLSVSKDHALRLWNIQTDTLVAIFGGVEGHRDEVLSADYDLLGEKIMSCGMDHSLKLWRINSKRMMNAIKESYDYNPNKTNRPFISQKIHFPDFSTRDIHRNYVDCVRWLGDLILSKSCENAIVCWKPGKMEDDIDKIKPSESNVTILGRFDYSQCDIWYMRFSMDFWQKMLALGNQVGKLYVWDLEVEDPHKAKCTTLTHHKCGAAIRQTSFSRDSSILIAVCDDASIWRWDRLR

EC50 [1] [µM] | Substance | Kd [2] [µM]
0.605 | unlabeled full-length RING1B (from UniProt Q99496 1-336) (natural protein) | –
– | EZH2 39-68 (from UniProt Q15910) | 0.38
